Results on 1 molecule are retold here after patent US20250011413A1 (MCMASTER UNIVERSITY, published 2025).

Experiment [1] has as its target T1, PF4/heparin complex (human PF4 complexed with heparin) (human, UniProt P02776 32-101).
T1 construct: Multimeric complex of PF4 with heparin (not a protein); In the EIAs: PF4 captured on biotinylated heparin on streptavidin plates; In the SRA: platelets with 0.2 U/mL heparin; also called PF4 and heparin complexes
T1 sequence: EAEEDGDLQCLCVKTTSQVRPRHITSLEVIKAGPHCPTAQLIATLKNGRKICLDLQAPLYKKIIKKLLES
Kind of experiment: BLI (Octet), biotinylated PF4/heparin on streptavidin sensors, scFv 1 µg/mL. The method, then:
(§1) The Octet-QK Red 96 (FortéBio, Menlo Park, CA) instrumentation was used to conduct all BLI experiments. A 96-well microtiter plate (black, flat-bottom) was used to hold 200 μL per well of either sample or buffer. Pre-coated streptavidin biosensor tips (FortéBio) were hydrated in phosphate buffered saline (PBS) containing 1% bovine serum albumin (BSA, Sigma-Aldrich) before performing all kinetic assays. Each step was performed at an operating temperature of 23° C. with agitation at 1000 rpm. Streptavidin tips were first equilibrated in PBS+1% BSA to establish a baseline. […] The PF4-coated tips were then dipped into PBS+1% BSA for 13 minutes to re-establish a baseline. Tips were then incubated in an analyte solution containing half-fold dilutions of wildtype scFv (4.0, 2.0, 1.0, 0.5, 0.25 μg/mL in PBS+1% BSA) for 10 minutes to measure association. For mutant scFv association, tips were incubated in an analyte solution containing 200 μL of each mutant and wildtype scFv at a final concentration of 1 μg/mL in PBS+1% BSA. Antibody dissociation steps were performed by dipping sensors in wells containing PBS+1% BSA for 56 minutes. The following negative controls included in these kinetic experiments were also measured: 200 μL of buffer to replace both the antigen and scFv and 200 μL buffer replacing scFv only. Each experiment was performed with PF4 or with PF4/heparin as the immobilized antigen.
(§2) BLI experiments were performed to evaluate binding responses and affinities of wildtype and mutant scFv. Biotinylated PF4 alone or complexed with heparin was immobilized on streptavidin biosensors and used to capture wildtype scFv. Half-fold serial dilutions of wildtype scFv ranging from 0.25 μg/mL to 4 μg/mL were used to determine the optimal concentrations for future experiments PF4 (PF4 FIG. 3; PF4/heparin FIG. 4).
For orientation: Biolayer interferometry detects binding as a change in optical thickness at a sensor tip.

For experiment [2], the target named is T1, PF4/heparin complex (human PF4 …). Kind of experiment: BLI (Octet), biotinylated PF4/heparin on streptavidin sensors, scFv 1 µg/mL, 1:1 model. The method, then:
as §1, §2

For experiment [3], the target named is T2, Human PF4 (CXCL4), biotinylated, without heparin (human, UniProt P02776 32-101, biotinylated with EZ-link-Sulfo-NHS-LC-Biotin (sites not given)).
T2 construct: Immobilised on streptavidin biosensors for BLI; also called PF4 alone; platelet factor 4
T2 sequence: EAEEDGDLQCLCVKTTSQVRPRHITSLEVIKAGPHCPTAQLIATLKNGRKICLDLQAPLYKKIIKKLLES
Description: BLI (Octet), biotinylated PF4 without heparin on streptavidin sensors, scFv at 1 µg/mL, 1:1 model, mean ± s.d. [cont.) b]. As to the method:
BLI experiments were performed using wildtype scFv, mutant B, mutant C, mutant D, mutant E, and mutant F at 1 μg/mL. Binding was measured against immobilized biotinylated PF4 on streptavidin biosensors. b) Table showing kinetic data of wildtype and mutant scFv, including binding responses and association and dissociation rates. All data was analyzed based on a 1:1 homogenous ligand binding model using Octet® User Software version 3.1.
as §1
(§3) BLI experiments were performed to evaluate binding responses and affinities of wildtype and mutant scFv. Biotinylated PF4 alone or complexed with heparin was immobilized on streptavidin biosensors and used to capture wildtype scFv.

The target in experiment [4] is T1, PF4/heparin complex (human PF4 …). Kind of experiment: BLI (Octet), biotinylated PF4/heparin on streptavidin sensors, scFv at 1 µg/mL, 1:1 model, mean ± s.d. The method, then:
BLI experiments were performed using wildtype scFv, mutant B, mutant C, mutant D, mutant E, and mutant F at 1 μg/mL. Binding was measured against immobilized biotinylated PF4/heparin complexes on streptavidin biosensors. b) Table showing kinetic data of wildtype and mutant scFv, including binding responses and association and dissociation rates. All data was analyzed based on a 1:1 homogenous ligand binding model using Octet®) User Software version 3.1.
as §1, §3

Experiment [5] shares this target. Kind of experiment: cell-based or functional assay.
For experiment [6], the target named is T2, Human PF4 (CXCL4), biotinylated, …. Kind of experiment: BLI (Octet), biotinylated PF4 without heparin on streptavidin sensors, scFv 1 µg/mL, 1:1 model. As to the method: as §1, §2
Experiment [7] addresses T1, PF4/heparin complex (human PF4 …). Kind of experiment: competition EIA, scFv 50 µg/mL; competitor HIT-positive sera antibodies, n=10. As to the method:
(§4) Inhibitory PF4/heparin IgG-specific Streptavidin Enzyme Immunoassay (EIA). The binding activity of wildtype and mutant scFv antibodies to PF4/heparin complexes was measured using an inhibitory PF4/heparin IgG-specific EIA with a streptavidin-biotin capture system. Before performing this protocol, 96-well NUNC Maxisorp plates (ThermoFisher) were coated with 10 μg/mL streptavidin for 24 h. Plates were then blocked with 3% bovine serum albumin (BSA) in phosphate buffered saline (PBS) for 2 h at room temperature. Plates were then coated with 1 U/mL biotinylated-heparin for 1 h followed by 30 μg/mL PF4 for 1 h. Increasing concentrations of wildtype or mutant scFv were added and incubated for 1 hr at room temperature. Without removing wildtype or scFv, HIT patient sera in a 1:50 dilution or full-length KKO (2 μg/mL) was then incubated for 1 h at room temperature. After washing, alkaline phosphatase-conjugated anti-human or anti-mouse IgG (Jackson Immuno Research Laboratories, Inc., West Grove, PA) was added at a 1:4000 dilution and incubated for 1 h temperature. For detection, 1 mg/mL p-nitrophenylphosphate (PNPP, Sigma-Aldrich) substrate dissolved in 1 mol/L diethanolamine (DEA) buffer (pH 9.6) was added. The optical density (OD) was measured at 2 min intervals for 30 min at 405 nm (OD₄₀₅ₙₘ) using a BioTek 800 TS plate reader (BioTek Instruments Inc., Winooski, VT) to determine if anti-PF4/heparin antibody binding was inhibited. Results were reported as a decrease in OD (absorbance at 405 nm) from baseline levels.
Inhibiting HIT-Positive (EIA+/SRA+) HIT-Negative (EIA+/SRA−) antibody binding: Sera (n=10) from confirmed HIT-positive patients (EIA-positive/SRA-positive) containing anti-PF4/heparin antibodies were used in a modified streptavidin-biotin based anti-PF4/heparin IgG EIA (streptavidin anti-PF4/hep EIA) with scFv at 50 μg/mL. On average, antibody binding to PF4/heparin was reduced in the presence of scFv.

For experiment [8] the target is unchanged. Kind of experiment: competition EIA, scFv 50 µg/mL; competitor HIT-negative sera antibodies, n=10.
Experiment [9] addresses T2, Human PF4 (CXCL4), biotinylated, …. Kind of experiment: BLI (Octet), biotinylated PF4 without heparin on streptavidin sensors, scFv 1 µg/mL. As to the method: as §1, §2
The target of experiment [10] is T1, PF4/heparin complex (human PF4 …). Description: competition EIA, scFv 50 µg/mL; competitor HIT-negative sera antibodies, n=10. As to the method:
as §4
Sera (n=10) from confirmed HIT-negative patients (EIA-positive/SRA-negative) containing anti-PF4/heparin antibodies were then used in the same EIA with scFv constructs to determine if antibody binding was decreased in this cohort (Table 5).
The source holds these as a separate data set.

For experiment [11] the target is unchanged. Kind of experiment: competition EIA, scFv 50 µg/mL; competitor HIT-positive sera antibodies, n=10. The source holds these as a separate data set.

B1: Mutant C scFv, scFv(S50N, Y53H) (scFv)
scFv: DIQMIQSQKFMSTSVGDRVTVTCKASQNVGTNVAWYQQKPGQSPNALIYNASHRYSGVPDRFTGSGSGTDFTLTITNVQSEDLADYFCQQYNSYPLTFGTGTKLDLKGGGGSGGGGSGGGGSVQLQQSGAELVKPGASVKLSCKASGYTFTNYFIYWVKQRPGQGLEWIGEINPRNGDTDFNEKFESRATLTVDKSSSTAYMQLSSLTSEDSAIYYCTRSPYGNNYGFTYWGQGTLVTVSA
notes: VL-linker-VH; histidine-tagged, from E. coli BL21; also called Mut C; not shown: histidine tag from the pADL-22c vector
As a reminder, the Kd is the free concentration of one partner at which half of the binding sites on the other are occupied at equilibrium, for simple one-to-one binding. Low values mean higher affinity, high ones lower affinity. Usually koff stands for the first-order rate constant of dissociation. A low value points to a long-lived complex. The term kon denotes the second-order rate constant of association. As to B1, in [1], the “average binding response (wavelength shift)” value was determined as 0.159 nm and the “fold higher binding response than wildtype scFv” value was determined as 2 fold. In [2], the Kd came to 3.81 nM and the “fold increased affinity against wildtype scFv” value was found to be 10 fold. In [3], this molecule came in with a koff of 0.000215 s⁻¹ and a kon of 16900 M⁻¹ s⁻¹. In experiment [4], this molecule yielded a koff of 0.000477 s⁻¹ and a kon of 85800 M⁻¹ s⁻¹. In experiment [5], the “% inhibition of 14C-serotonin release (SRA), HIT-Positive Patient #1 serum, scFv 50 µg/mL” value came out at 14.4%; the “% inhibition of 14C-serotonin release (SRA), HIT-Positive Patient #1 serum, scFv 75 µg/mL” value was determined as 22.2%; the “% inhibition of 14C-serotonin release (SRA), HIT-Positive Patient #2 serum, scFv 50 µg/mL” value amounted to 15.4%; the “% inhibition of 14C-serotonin release (SRA), HIT-Positive Patient #2 serum, scFv 75 µg/mL” value was found to be 21.8%. Besides, in experiment [5], the “% inhibition of 14C-serotonin release (SRA), HIT-Positive Patient #3 serum, scFv 50 µg/mL” value is -1.2%; the “% inhibition of 14C-serotonin release (SRA), HIT-Positive Patient #3 serum, scFv 75 µg/mL” value was found to be 9.6%; the “% inhibition of 14C-serotonin release (SRA), HIT-Positive Patient #4 serum, scFv 50 µg/mL” value was found to be 3.3%; the “% inhibition of 14C-serotonin release (SRA), HIT-Positive Patient #4 serum, scFv 75 µg/mL” value amounted to 5.6%. In experiment [5], the “% inhibition of 14C-serotonin release (SRA), HIT-Positive Patient #5 serum, scFv 50 µg/mL” value was 22.2% and the “% inhibition of 14C-serotonin release (SRA), HIT-Positive Patient #5 serum, scFv 75 µg/mL” value worked out at 6.9%. Moreover, the Kd in experiment [6] came to 1660 nM. The “mean OD405nm of bound serum IgG (+ scFv)” value in [7] was determined as 0.799 OD405nm. Also, the “mean % inhibition of serum antibody binding” value in [8] is -42.5%. The “average binding response (wavelength shift)” value in experiment [9] worked out at 0.0399 nm. For the same molecule, in [10], the “mean OD405nm of bound serum IgG (+ scFv)” value came out at 1.24 OD405nm. Also, the “mean % inhibition of serum antibody binding” value in [11] was found to be 50.6%.
